Data on six molecules can be found in US20250136718A1 (MABWELL THERAPEUTICS, published 2025).

Assay [1] concerns the target T1, mouse TMPRSS6 expressed on HEK293T cells, MoTMPRSS6-(His)6 (mouse, UniProt Q9DBI0 1-811).
T1 construct: HEK293T cells stably expressing the construct; also called murine TMPRSS6
T1 sequence: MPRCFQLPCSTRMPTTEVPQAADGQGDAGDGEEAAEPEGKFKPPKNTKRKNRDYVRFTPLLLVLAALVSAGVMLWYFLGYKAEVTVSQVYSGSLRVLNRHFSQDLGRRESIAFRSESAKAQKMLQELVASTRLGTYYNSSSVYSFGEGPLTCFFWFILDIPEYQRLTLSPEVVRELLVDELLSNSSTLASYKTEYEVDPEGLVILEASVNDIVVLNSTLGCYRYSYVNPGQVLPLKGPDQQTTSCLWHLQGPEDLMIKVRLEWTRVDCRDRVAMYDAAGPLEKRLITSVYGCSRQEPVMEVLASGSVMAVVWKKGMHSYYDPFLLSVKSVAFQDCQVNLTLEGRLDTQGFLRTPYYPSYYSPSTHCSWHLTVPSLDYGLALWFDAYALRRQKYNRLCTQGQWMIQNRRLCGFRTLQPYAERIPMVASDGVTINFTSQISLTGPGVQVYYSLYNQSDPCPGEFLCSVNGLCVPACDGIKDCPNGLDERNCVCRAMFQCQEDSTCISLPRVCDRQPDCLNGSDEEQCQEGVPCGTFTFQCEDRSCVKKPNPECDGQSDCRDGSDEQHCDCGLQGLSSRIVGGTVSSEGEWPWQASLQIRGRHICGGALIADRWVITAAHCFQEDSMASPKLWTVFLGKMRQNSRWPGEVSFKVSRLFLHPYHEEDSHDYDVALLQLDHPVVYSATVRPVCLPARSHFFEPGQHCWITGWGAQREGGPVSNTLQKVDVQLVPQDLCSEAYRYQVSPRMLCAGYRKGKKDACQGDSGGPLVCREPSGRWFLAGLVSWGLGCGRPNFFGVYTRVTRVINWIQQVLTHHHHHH
Briefly: summary of Example 4 (FACS, cell surface ELISA). On the procedure: (§1) Selected anti-TMPRSS6 antibodies were tested to determine whether any are capable of binding to TMPRSS6 from mouse and/or cynomolgus monkey. HEK293T cells stably expressing human TMPRSS6 (HuTMPRSS6-(His)₆) (generated by LakePharma Inc as described above), HEK293T cells stably expressing mouse TMPRSS6 (MoTMPRSS6-(His)₆) (SEQ ID NO: 98) (generated by LakePharma Inc as described above) and HEK293T cells transiently expressing cynomolgus monkey TMPRSS6 (CynoTMPRSS6-(His)₆) (SEQ ID NO: 99) (generated in house) were collected. HEK293T cells stably expressing human TMPRSS6 were used as a positive control and HEK293T cells were used as a negative control (as described above). Cells were blocked with dPBS+3% BSA before incubation with anti-TMPRSS6 antibodies diluted in dPBS+3% BSA. After incubation, cells were washed with dPBS and followed by another incubation with goat anti-mouse IgG conjugated with AlexaFluor-488 as a 2° antibody (Invitrogen). At last, cells were washed with dPBS to remove unbound antibody, re-suspended with dPBS+1 mM EDTA, and then subjected to FACS analysis using a NOVOCYTE® Flow Cytometer (ACEA Biosciences, Inc., San Diego CA). Bound antibody was determined by excitation at 488 nm and measurement of emission (FITC-A) at 530 nm. Results for these assays are shown in histogram plots in FIGS. 4A-4I.
(§2) HEK293T cells stably expressing mouse TMPRSS6 (generated by LakePharma Inc as described above, FIGS. 4J, 4L, 4N, 4P, 4R, 4T) or cynomolgus monkey (generated in house as described above, FIGS. 4K, 4M, 4O, 4Q, 4S, 4U) were fixed with methanol (100%), and washed with dPBS (Dulbecco's phosphate-buffered saline, Corning Cellgro) before incubation with various concentrations of anti-TMPRSS6 antibodies and their humanized variants diluted in BSA medium (DMEM+1% Pen/Strep+10 mM HEPES+1 mg/ml BSA (Sigma-Aldrich)). Purified mouse IgG (FIGS. 4J-4O) or Human IgG1 (FIGS. 4P-4U) was used as a control.
In general terms: An ELISA detects its analyte on a solid surface through an enzyme-linked reagent.

The target in assay [2] is T2, mouse TMPRSS6 expressed on HEK293T cells, MoTMPRSS6-(His)6 (UniProt Q9DBI0 1-811).
T2 chain: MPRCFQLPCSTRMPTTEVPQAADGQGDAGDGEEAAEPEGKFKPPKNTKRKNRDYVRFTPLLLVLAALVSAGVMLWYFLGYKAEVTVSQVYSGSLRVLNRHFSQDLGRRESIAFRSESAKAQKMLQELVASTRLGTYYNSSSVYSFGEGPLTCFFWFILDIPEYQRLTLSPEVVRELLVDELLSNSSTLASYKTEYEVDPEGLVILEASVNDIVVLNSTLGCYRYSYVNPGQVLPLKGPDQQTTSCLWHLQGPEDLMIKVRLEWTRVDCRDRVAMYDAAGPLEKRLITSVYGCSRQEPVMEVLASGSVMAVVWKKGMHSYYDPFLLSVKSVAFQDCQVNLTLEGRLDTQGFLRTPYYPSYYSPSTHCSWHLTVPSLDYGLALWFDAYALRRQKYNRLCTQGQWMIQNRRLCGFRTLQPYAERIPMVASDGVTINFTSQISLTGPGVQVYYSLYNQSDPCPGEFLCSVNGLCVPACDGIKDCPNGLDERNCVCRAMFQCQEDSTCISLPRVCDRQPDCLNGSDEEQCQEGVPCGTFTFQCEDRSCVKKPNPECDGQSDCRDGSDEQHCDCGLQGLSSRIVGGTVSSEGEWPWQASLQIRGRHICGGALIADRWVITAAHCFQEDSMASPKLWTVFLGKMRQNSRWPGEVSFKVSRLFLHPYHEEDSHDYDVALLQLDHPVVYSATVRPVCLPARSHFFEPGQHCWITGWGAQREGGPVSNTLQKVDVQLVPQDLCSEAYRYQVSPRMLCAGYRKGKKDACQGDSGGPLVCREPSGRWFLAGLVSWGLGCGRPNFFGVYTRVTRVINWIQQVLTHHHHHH
Kind of assay: cell surface ELISA.

The target in assay [3] is T1, mouse TMPRSS6 expressed on HEK293T …. Briefly: FACS on HEK293T cells stably expressing MoTMPRSS6-(His)6. On the procedure: as §1
For assay [4] the target is unchanged. Briefly: summary of Example 4 (cell surface ELISA). Here is the method: as §2, with “control. After incubation, cells were washed with BSA medium and then incubated with goat anti-mouse (Invitrogen, FIGS. 4J-4O) or anti-human (Millipore, FIGS. 4P-4U) IgG conjugated with HRP as a 2° antibody. Finally, cells were washed with dPBS to remove unbound antibody and color developed with ELISA liquid substrate (Sigma-Aldrich), followed by stopping the reaction with addition of the same volume of […] 1M H₂SO₄. Bound antibody was measured by absorbance at OD₄₅₀ₙₘ.” for “control.”

Assay [5] has the same target. Kind of assay: cell surface ELISA on methanol-fixed HEK293T cells expressing mouse TMPRSS6. Here is the method:
as §2, with “control. After incubation, cells were washed with BSA medium and then incubated with goat anti-mouse (Invitrogen, FIGS. 4J-4O) or anti-human (Millipore, FIGS. 4P-4U) IgG conjugated with HRP as a 2° antibody. Finally, cells were washed with dPBS to remove unbound antibody and color developed with ELISA liquid substrate (Sigma-Aldrich), followed by stopping the reaction with addition of the same volume of […] 1M H₂SO₄. Bound antibody was measured by absorbance at OD₄₅₀ₙₘ.” for “control.”

B1: MWTx-001 anti-TMPRSS6 monoclonal antibody (antibody, mouse IgG2a, kappa, V domains shown)
VH: QVQLQQPGAELAKPGASVKMSCKASGYTFTSYWITWVKQRPGQDLEWIGNIYPGSGSTYYNEKFKSKATLTVDTSSRTAYMQLSSLTSADSAVYYCAPYDSDYAMDYWGQGTSVTVSS
VL: DIKMTQSPSSMYASLGERVTITCKASQDINNYLSWFQQKPGKSPKTLIYRANRLVDGVPSRVSGSGSGQDYSLTISSLEYEDVGIYFCLQYDEFPLTFGAGTKLELKR
notes: Mouse monoclonal antibody from hybridoma (ATCC PTA-126759)
As for B1, the binding result in assay [1] was “binds”. The EC50 (usually the concentration at which the effect is half-maximal) in assay [2] was 0.25 µg/mL.

B2: MWTx-002 anti-TMPRSS6 monoclonal antibody (antibody, mouse IgG2b, kappa, V domains shown)
VH: EVQLQQSGAELVKPGASVKLSCTASGFNIKDYYIHWVKERTEQGLEWFGRIDPEDGESEYAPKFQGKATLTADTSSNTAYLQLSSLTSEDTAVYYCTRGDSMMVTYFDYWGQGTTLTVSS
VL: DIVMTQSHKFMSTSVGDRVSITCKASQDVSTAVAWYQQKPGQSPKLLIYWAFTRHTGVPDRFTSTGSGTDYALTISSVQAEDLALYYCQQHYRSPWTFGGGTKLEIKR
notes: Mouse monoclonal antibody from hybridoma (ATCC PTA-126760)
Regarding B2, the binding result in assay [3] was “no binding”.

B3: humanized anti-TMPRSS6 antibody variant hzMWTx-003 Var (antibody, human IgG1, kappa, L234A L235A, V domains shown)
VH: QVQLVQSGAEVKKPGASVKVSCKASGFNIEDYYMHWVRQAPGQRLEWMGRIDPEDAETTYSPKFQGRVTIIPDTSANTAYMELSSLRSEDTAVYYCARSIYLDPMDYWGQGTLVTVSS
VL: DIQMTQSPKSLSASVGDRVTITCRASQDVTTALAWYQQKPGQSPKLLIYWATTRHSGVPSRFSGSGSGTDFTLTISSLQPEDFATYYCQQHYSTPYTFGQGTKLEIKR
notes: Human IgG1 / kappa
Take B3: the binding result in assay [4] is reported as “binds”.

B4: humanized anti-TMPRSS6 antibody variant hzMWTx-001 Var (antibody, human IgG1, kappa, N297A, V domains shown)
VH: EVQLVQSGAEVKKPGASVKVSCKASGYTFTSYWITWVRQAPGQRLEWIGNIYPGSGSTYYNEKFKSKATITRDTSSRTAYMELSSLRSEDTAVYYCAPYDADYAMDYWGQGTLVTVSS
VL: DIQMTQSPSSLSASVGDRVTITCKASQDISNYLSWFQQKPGKAPKLLIYRANRLVEGVPSRFSGSGSGTDFTLTISSLQPEDFATYFCLQYDEFPLTFGGGTKVEIKR
notes: Human IgG1 / kappa
As for B4, the binding result in assay [4] is reported as “binds”.

B5: humanized anti-TMPRSS6 antibody variant hzMWTx-002 Var (antibody, human IgG1, kappa, N297A, V domains shown)
VH: EVQLVQSGAEVKKPGASVKVSCKASGFNIKDYYIHWVRQATGQGLEWMGRIDPEDAESEYAPKFQGRVTITADTSTDTAYMELSSLRSEDTAVYYCTRGDSMMVTYFDYWGQGTLVTVSS
VL: DIQMTQSPSSLSASVGDRVTITCKASQDVSTAVAWYQQKPGKAPKLLIYWAFTRHTGVPSRFSGSGSGTDYALTISSLQPEDFATYYCQQHYRSPWTFGGGTKVEIKR
notes: Human IgG1 / kappa
For B5, the binding result in assay [5] is “no binding”.

B6: MWTx-003 anti-TMPRSS6 monoclonal antibody (antibody, mouse IgG2b, kappa, V domains shown)
VH: EVQLQQSGAELVKPGASVKLSCTASGFNIEDYYIHWVKERTEQGLEWIGRIDPEDGETTYAPQFQGKATIIPDTSSNTAYMQLSSLTSEDAAVYYCARSIYLDPMDYWGQGTSVTVSS
VL: DIVMTQSHKFMSTSVGDRVSITCKASQDVTTAVAWYQQKPGQSPKILIYWATTRHTGVPDRFTGSISGTTYILTISSVQAEDLALYYCQQHYSTPYTFGGGTKLEIKR
notes: Mouse monoclonal antibody from hybridoma (ATCC PTA-126761); The recombinant version r4K12B has the same HC and LC; also called r4K12B; recombinant MWTx-003
As to B6, in assay [1], the binding result is reported as “binds”. In addition, in assay [2], the response was half-maximal at 0.07 µg/mL (EC50).
